The target in test [1] is T1, human TIGIT ECD T55A (human, UniProt Q495A1 22-141).
T1 construct: point mutant expressed in E. coli
T1 chain: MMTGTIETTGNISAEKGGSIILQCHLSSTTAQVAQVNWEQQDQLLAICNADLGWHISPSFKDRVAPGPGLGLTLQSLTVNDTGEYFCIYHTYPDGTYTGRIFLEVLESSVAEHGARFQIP
Briefly: SPR, antibody captured on anti-human Fc, TIGIT ECD injected.

In test [2] the target is T2, human TIGIT ECD Y113A (human, UniProt Q495A1 22-141).
T2 construct: point mutant expressed in E. coli
T2 chain: T1 chain with A34T, Y92A
The test is described as above.

Test [3] concerns the target T3, human TIGIT ECD Q53A (human, UniProt Q495A1 22-141).
T3 construct: point mutant expressed in E. coli
T3 chain: T1 chain with Q32A, A34T
The description is as above.

For test [4], the target named is T4, human TIGIT ECD (wild-type, expressed in E. coli) (human, UniProt Q495A1 22-141).
T4 construct: also called huTIGIT; wild-type TIGIT
T4 sequence: T1 chain with A34T
Described as above.

The target in another test is T5, human TIGIT ECD T117A (human, UniProt Q495A1 22-141).
T5 construct: point mutant expressed in E. coli
T5 chain: T1 chain with A34T, T96A
Described as above.

A further test concerns the target T6, human TIGIT ECD H111A (human, UniProt Q495A1 22-141).
T6 construct: point mutant expressed in E. coli
T6 chain: T1 chain with A34T, H90A
The test is described as above.

For a further test, the target named is T7, human TIGIT ECD D115A (human, UniProt Q495A1 22-141).
T7 construct: point mutant expressed in E. coli
T7 chain: T1 chain with A34T, D94A
Described as above.

The target of the next test is T8, human TIGIT ECD N70A (human, UniProt Q495A1 22-141).
T8 construct: point mutant expressed in E. coli
T8 chain: T1 chain with A34T, N49A
The test is described as above.

In test [5] the target is T1, human TIGIT ECD T55A. Kind of test: SPR, antibody captured, mutant TIGIT ECD injected. For orientation: SPR reads the build-up and loss of mass on a sensor chip optically.
In test [6] the target is T2, human TIGIT ECD Y113A. Briefly: SPR, antibody captured, mutant TIGIT ECD injected.
Test [7] addresses T3, human TIGIT ECD Q53A. Kind of test: SPR, antibody captured, mutant TIGIT ECD injected.
The next test addresses T9, human TIGIT ECD P114G (human, UniProt Q495A1 22-141).
T9 construct: point mutant expressed in E. coli
T9 chain: T1 chain with A34T, P93G
Briefly: SPR, antibody captured, mutant TIGIT ECD injected.

Experimental findings from patent publication US20220403022A1 (Merck KGaA, published 2022) are described below.

Broadly, the Kd is the equilibrium constant for the complex coming apart.

Where a chain is given by its changes, count along the chain named.

B1: 3963H03-12 (antibody, human IgG1, kappa, V domains shown)
VH: QVQLVQSGSELKKPGASVKVSCKASGYTFTSYPMNWVRQAPGQGLEWMGWINTNTGNPTYAQGFTGRFVFSLDTSVSTAYLQISSLKAEDTAVYYCARVGGYSVDEYAFDVWGQGTLVTVSS
VL: DIQLTQSPSFLSASVGDRVTITCRASQGISSYLAWYQQKPGKAPKLLIYAASTLQSGVPSRFSGSGSGTEFTLTISSLQPEDFATYYCQQLSSYPTFGGGTKVEIKR
notes: also called anti-TIGIT H03-12; 39631H03-12
Turning to B1, the “ΔΔGmut” value was greater than 3 kcal/mol with human TIGIT ECD T55A [1]; greater than 3 kcal/mol in the test with human TIGIT ECD Y113A [2]; greater than 3 kcal/mol in the test with human TIGIT ECD Q53A [3]; 0 kcal/mol in [4]; -0.17 kcal/mol in the test with human TIGIT ECD T117A; 1.6 kcal/mol with human TIGIT ECD H111A. The “ΔΔGmut” value with human TIGIT ECD D115A came out at 1.14 kcal/mol; with human TIGIT ECD N70A it was 1.61 kcal/mol. The Kd in test [4] was found to be 2.08 nM; with human TIGIT ECD T117A it was 1.58 nM; with human TIGIT ECD H111A it was 30.9 nM; in the test with human TIGIT ECD D115A, 14.4 nM; with human TIGIT ECD N70A, 31.5 nM. The binding result with human TIGIT ECD T55A [5], with human TIGIT ECD Y113A [6], with human TIGIT ECD Q53A [7] and in the test with human TIGIT ECD P114G was “no binding (tested: 100 nM antigen)” each time.
